# Measured values reported in article PMC4787769.
# Several values for one entry are separate records, joined by “and”; a condition that tells them apart may be missing. Equal values may be shown once. Read-outs that look alike come from different tables or passages of the source.
# Assays:
# [1] = molecular target: KSHV LANA DNA binding domain, kLANA_(1008–1150) (KSHV); experiment: SEC
# [2] = molecular target: KSHV LANA DNA binding domain, kLANA_(1008–1150) (KSHV); experiment: SAXS
# [3] = molecular target: KSHV LANA DNA binding domain, kLANA_(1019–1150) (KSHV); experiment: crystal structure
# [4] = molecular target: KSHV LANA DNA binding domain, kLANA_(1019–1150) (KSHV); experiment: SEC; gel filtration in the presence of 1 M NaCl
# [5] = molecular target: MHV-68 LANA DNA binding domain, mLANA_(124–314) (MHV-68); experiment: SEC
# [6] = molecular target: MHV-68 LANA DNA binding domain, mLANA_(124–314) (MHV-68); experiment: SAXS
# [7] = molecular target: MHV-68 LANA DNA binding domain, mLANA_(124–314) (MHV-68); experiment: SAXS; remark: listed apart in the source
# [8] = molecular target: kLANA_(1008–1150 (K1109E)) (KSHV); experiment: SEC
# [9] = molecular target: kLANA_(1008–1150 (K1109E)) (KSHV); experiment: SAXS
# [10] = molecular target: kLANA_(k1109E, A1121E) (KSHV); experiment: SEC
# [11] = molecular target: kLANA_(k1109E, A1121E) (KSHV); experiment: SEC; remark: listed apart in the source
# [12] = molecular target: mLANA DBD (Murine gammaherpesvirus 68 (MHV-68)) (UniProt O41974); experiment: ITC
substance,measurement,setting,value
"KSHV LANA DNA binding domain, kLANA_(1008–1150) (domain or fragment)",stoichiometry N,[1],2 and 4
same,percent of the mixture present as octamer with two kLBS1–2 DNA,[2],74%
same,stoichiometry N,[2],8 and 4
"KSHV LANA DNA binding domain, kLANA_(1019–1150) (domain or fragment)",stoichiometry N,[3],2 and 4
same,stoichiometry N,[4],2
"MHV-68 LANA DNA binding domain, mLANA_(124–314) (domain or fragment)",stoichiometry N,[5],2 and 4
same,stoichiometry N,[6],8
same,stoichiometry N,[7],4
kLANA_(1008–1150 (K1109E)) (domain or fragment),stoichiometry N,[8],2 and 4
same,percent of species present as bent tetramer,[9],20%
same,percent of species present as dimer,[9],< 80%
same,stoichiometry N,[9],2 and 4
"kLANA_(k1109E, A1121E) (domain or fragment)",stoichiometry N,[10],4
same,stoichiometry N,[11],2
kLBS1-2,Kd,[12],71.7 nM
